Consider seven molecules from US20160068605A1 (Janssen / Centocor, published 2016).

T1: Recombinant human CD123 SP1 ECD-His tag protein (human, UniProt P26951 20-305)
T1 construct: bought from R&D Systems (#301-R3/CF); biotinylated for some assays; also called rhCD123 SP1; huCD123 ECD SP1
T1 sequence: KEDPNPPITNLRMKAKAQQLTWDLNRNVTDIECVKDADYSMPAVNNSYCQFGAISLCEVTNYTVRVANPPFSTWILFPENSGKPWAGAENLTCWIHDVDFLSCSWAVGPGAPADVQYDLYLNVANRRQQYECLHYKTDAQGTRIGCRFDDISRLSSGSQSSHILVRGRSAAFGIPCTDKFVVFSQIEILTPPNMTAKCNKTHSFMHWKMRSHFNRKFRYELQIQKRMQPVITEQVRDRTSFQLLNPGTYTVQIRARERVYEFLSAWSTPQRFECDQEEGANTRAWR

T2: Recombinant human CD123 SP2 ECD protein (human, UniProt P26951 101-303)
T2 construct: also called rhCD123 SP2; CD123 ECD SP2
T2 sequence: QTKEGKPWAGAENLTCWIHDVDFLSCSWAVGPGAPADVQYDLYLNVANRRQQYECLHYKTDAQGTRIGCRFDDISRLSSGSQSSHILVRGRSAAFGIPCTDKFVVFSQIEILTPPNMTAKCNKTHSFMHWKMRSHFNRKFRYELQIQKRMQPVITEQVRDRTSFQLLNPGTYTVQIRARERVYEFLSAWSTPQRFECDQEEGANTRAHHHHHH

T3: human CD123 SP2 ECD displayed on pDisplay-transfected cells (human, UniProt P26951 101-305)
T3 construct: ECD anchored on the surface of stably transfected HEK293 cells; also called hCD123 SP2 cells; pDisplay CD123SP2
T3 sequence: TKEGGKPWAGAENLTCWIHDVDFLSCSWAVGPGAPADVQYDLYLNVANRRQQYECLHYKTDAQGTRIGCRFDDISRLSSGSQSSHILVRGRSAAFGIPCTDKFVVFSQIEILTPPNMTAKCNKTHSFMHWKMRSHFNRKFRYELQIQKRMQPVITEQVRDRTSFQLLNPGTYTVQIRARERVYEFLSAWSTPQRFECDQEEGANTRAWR

T4: cyno CD123 ECD displayed on pDisplay-transfected cells (cynomolgus monkey)
T4 construct: ECD anchored on the surface of stably transfected HEK293 cells; also called cynoCD123 SP1 cells; cynoCD123 cells
T4 chain: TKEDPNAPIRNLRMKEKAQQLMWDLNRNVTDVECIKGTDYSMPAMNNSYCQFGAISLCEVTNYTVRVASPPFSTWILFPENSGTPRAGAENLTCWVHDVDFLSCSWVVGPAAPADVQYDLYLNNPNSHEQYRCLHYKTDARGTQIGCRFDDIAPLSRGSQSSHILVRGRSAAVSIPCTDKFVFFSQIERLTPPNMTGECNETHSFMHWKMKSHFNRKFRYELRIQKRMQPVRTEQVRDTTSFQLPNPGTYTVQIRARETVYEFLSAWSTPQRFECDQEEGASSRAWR

B1: I3RB122 (Fab, V domains shown)
VH: QVQLVQSGAEVKKPGSSVKVSCKASGGTFSSYAISWVRQAPGQGLEWMGGIIPIFGTANYAQKFQGRVTITADESTSTAYMELSSLRSEDTAVYYCARDKTDFPSRLDYWGQGTLVTVSS
VL: DIQMTQSPSSLSASVGDRVTITCRASQSIATWLNWYQQKPGKAPKLLIYAASSLQSGVPSRFSGSGSGTDFTLTISSLQPEDFATYYCQQYITFPLTFGQGTKVEIK
notes: also called Fab of I3RB37
B2: I3RB35 (antibody, IgG1, V domains shown)
VH: B1 VH with D99H, K100L, T101F, D102W, F103D, P104A, S105G, R106P
VL: B1 VL with A30S, T31S, W32Y, I92F, T93S, F94P, L96Y
notes: IgG1
B3: I3RB37 (antibody, IgG1, V domains shown)
VH: B1 VH
VL: B1 VL
notes: IgG1
B4: I3RB12 (antibody, IgG1, V domains shown)
VH: B1 VH with D99A, K100D, T101R, D102V, F103W, P104D, S105Y, R106Y
VL: not shown
notes: IgG1
B5: I3RB6 (antibody, IgG1, V domains shown)
VH: QVQLVQSGAEVKKPGSSVKVSCKASGGTFSSYAISWVRQAPGQGLEWMGGIIPIFGTANYAQKFQGRVTITADESTSTAYMELSSLRSEDTAVYYCARGLFNWSNVALDYWGQGTLVTVSS
VL: not shown
notes: IgG1; also called I3RB06
B6: I3RB22 (antibody, IgG1, V domains shown)
VH: QVQLVQSGAEVKKPGSSVKVSCKASGGTFSSYAISWVRQAPGQGLEWMGGIIPIFGTANYAQKFQGRVTITADESTSTAYMELSSLRSEDTAVYYCARNLFYWADSVYLDYWGQGTLVTVSS
VL: EIVLTQSPATLSLSPGERATLSCRASQSVNKWLAWYQQKPGQAPRLLIYYASNRATGIPARFSGSGSGTDFTLTISSLEPEDFAVYYCQQGIDWPRTFGQGTKVEIK
notes: IgG1
B7: I3RB9 (antibody, IgG1, V domains shown)
VH: B6 VH with N99G, L100A, F101R, Y102W, W103F, A104N, D105P, S106P, V107E, Y108N
VL: not shown
notes: IgG1; also called I3RB09

Numbering of substitutions follows the chain as printed. Several values for one entry are separate records, joined by “and”; a condition that tells them apart may be missing. Equal values may be shown once.

The target of the first test is T1, Recombinant human CD123 SP1 ECD-His tag …. Put plainly: SPR Biacore 3000, captured Fab. How it is done: (§1) Kinetic studies were performed at 25° C. using a Biacore 3000 (BIAcore, Inc., now part of GE Healthcare). […] Sheep anti-Human Fd specific antibody (The binding site Prod # PC075) was covalently attached to two flow cells (normally 3 and 4) of the carboxymethyl dextran coated gold surfaces (CM-5 Chip, Biacore). The carboxymethyl groups of dextran were activated with N-Ethyl-N′-(3-Dimethylaminopropyl)carbodiimide (EDC) and N-hydroxysuccinimide (NHS). The antibodies were coupled at pH 4.5 in 10 mM sodium acetate. Any remaining reactive sites on the surface were blocked by reaction with ethanolamine. […] Association data was collected for 2 min followed by 10 min of dissociation. The surface was regenerated with 30 μL of 100 mM H3PO4 100 μL/min. All samples were prepared in D-PBS containing 3 mM EDTA and 0.005% surfactant P20. Data reported is the difference in SPR signal between the flow cell containing the captured antibody or Fab and a reference cell without captured antibody or Fab. Additional instrumental contributions to the signal were removed by subtraction of the data from the blank injection from the reference-subtracted signal. Data were performed in triplicate and analyzed by fitting association and dissociation phases at all concentrations (global fit) with a 1:1 binding model using the BIAevaluation software (BIAcore, Inc.). […] Data presented is an average.
For orientation: SPR reads the build-up and loss of mass on a sensor chip optically.
Usually Kd stands for the equilibrium constant for the complex coming apart. The term koff denotes the rate constant with which the complex falls apart. Usually kon stands for the second-order rate constant of association. On to B1, for which the Kd is 11.5 nM, the koff turned out to be 0.0045 s⁻¹ and the kon is 393000 M⁻¹ s⁻¹.

Another test has the same target. Kind of test: SPR ProteOn, captured mAb. How it is done: (§2) The biosensor surface was prepared by covalently coupling Goat anti-Human IgG (Fc) to the surface of a GLC chip (BioRad) using the manufacturer instructions for amine-coupling chemistry. […] The RU immobilized also included a goat anti-mouse Fc antibody that was added to capture other antibodies not included in the ones reported here. Since the mixture was 1:1 about 50% of these RU immobilized are expected to be goat anti-human Fc. The kinetic experiments were performed at 25° C. in running buffer (PBS pH 7.4, 0.005% P20, 3 mM EDTA). […] The reference spots (Goat anti-Human IgG (Fc)-modified surface) containing no candidate captured were used as a reference surface. Capture of mAb was followed by 3 min injection (association phase) of antigen at 40 μL/min, followed by 10 min of buffer flow (dissociation phase). […] Data was processed on the instrument software. Double reference subtraction of the data was performed by subtracting the curves generated by buffer injection from the reference-subtracted curves for analyte injections. Kinetic analysis of the data was performed using 1:1 Langmuir binding model with group fit. The result for each mAb was reported in the format of Kₐ (kon or on-rate), Kd (koff or off-rate), KD (Equilibrium dissociation constant) (Table 5).
For the molecule B2, the Kd amounted to 2.83 nM, the koff stood at 0.00293 s⁻¹ and the kon is 1.04e+06 M⁻¹ s⁻¹.

Regarding B3, the Kd is 6.27 nM and 5.15 nM; the koff was 0.00669 s⁻¹ and 0.00621 s⁻¹; the kon is 1.07e+06 M⁻¹ s⁻¹ and 1.21e+06 M⁻¹ s⁻¹.

With B4, the equilibrium dissociation constant (Kd) was determined as 9.61 nM, the dissociation rate constant (koff) is 0.0078 s⁻¹ and the kon was determined as 812000 M⁻¹ s⁻¹.

Take B5: the Kd is 11.5 nM, the koff worked out at 0.00593 s⁻¹ and the on-rate constant (kon) came to 514000 M⁻¹ s⁻¹.

Consider B6, for which the Kd was determined as 4.12 nM, the koff came out at 0.00106 s⁻¹ and the kon amounted to 257000 M⁻¹ s⁻¹.

B7: the Kd came to 12.4 nM, the koff was found to be 0.00843 s⁻¹ and the on-rate (kon) worked out at 680000 M⁻¹ s⁻¹.

In another test the target is T2, Recombinant human CD123 SP2 ECD protein. Kind of test: SPR ProteOn, captured mAb. How it is done: as §2
For B4, the binding result is recorded as “no binding (tested: 400 nM)”.

For B5, the binding result was “no binding (tested: 400 nM)”.

On to B6, for which the binding result is recorded as “no binding (tested: 400 nM)”.

Turning to B7, the binding result is on record as “no binding (tested: 400 nM)”.

The next test deals with T1, Recombinant human CD123 SP1 ECD-His tag …. Put plainly: SPR Biacore 3000, captured mAb. As for the experimental part:
as §1
In the case of B2, the Kd is 4.8 nM, the koff was found to be 0.00258 s⁻¹ and the kon was 540000 M⁻¹ s⁻¹.

Take B3: the Kd is 9.7 nM, the koff is 0.0053 s⁻¹ and the on-rate (kon) is 545000 M⁻¹ s⁻¹.

In another test the target is T3, human CD123 SP2 ECD displayed on …. Put plainly: MSD cell binding on 293F pDisplay cells; fold change over background; parental 293F cells as control. As for the experimental part:
(§3) The object of the screening assay was to identify antibodies that bound to cells expressing hCD123 SP1 and SP2 as well as cross reactivity with cells expressing cynoCD123 SP1.
(§4) Cells were immobilized and phages were assayed in triplicate. […] 5000 cells per well were plated into a 384 well plate (MA6000, cat. L21XB, MSD) and allowed to adhere for 2 hr. Cells were then blocked with 20% FBS in PBS (Gibco) for 15 mins. Antibody supernatants were then added and left at RT for 1 hr. Cells were washed 3 times with PBS and a ruthenium labeled secondary antibody (Jackson Immuno Research) was then added at 1 μg/mL and incubated for 1 hr at room temperature. A further washing step was then applied and 35 μL per well of MSD Read buffer T (surfactant free) was then added and incubated for 30 min for detection. Plates were then read using Sector Imager 2400 (MSD). Data was normalized to controls and graphed using GraphPad Prism Version 5. A positive binder was determined to be a hit with a signal 3× greater than background (FIGS. 2A, B and C).
Regarding B3, the binding result was “no binding (tested: 10 µg/mL)”.

B4: the binding result was “no binding (tested: 10 µg/mL)”.

For the molecule B5, the binding result is reported as “no binding (tested: 10 µg/mL)”.

Turning to B6, the binding result was “no binding (tested: 10 µg/mL)”.

Regarding B7, the binding result is “no binding (tested: 10 µg/mL)”.

The target of a further test is T4, cyno CD123 ECD displayed on …. Described as above. As for the experimental part:
as §3, §4
Turning to B2, the binding result was “binds”.

As for B3, the binding result is “binds”.

For the molecule B4, the binding result is “no binding (tested: 10 µg/mL)”.

Take B5: the binding result is reported as “no binding (tested: 10 µg/mL)”.

For B6, the binding result is recorded as “no binding (tested: 10 µg/mL)”.

B7: the binding result is given as “no binding (tested: 10 µg/mL)”.
